Reference: IntAct's records for PubMed 23598340

B1: Ktr system potassium uptake protein B (Bacillus subtilis), O32081 (parent)
chain: MTLQKDKVIKWVRFTPPQVLAIGFFLTIIIGAVLLMLPISTTKPLSWIDALFTAASATTVTGLAVVDTGTQFTVFGQTVIMGLIQIGGLGFMTFAVLIVMILGKKIGLKERMLVQEALNQPTIGGVIGLVKVLFLFSISIELIAALILSIRLVPQYGWSSGLFASLFHAISAFNNAGFSLWPDNLMSYVGDPTVNLVITFLFITGGIGFTVLFDVMKNRRFKTFSLHTKLMLTGTLMLNAIAMLTVFILEYSNPGTLGHLHIVDKLWASYFQAVTPRTAGFNSLDFGSMREGTIVFTLLLMFIGAGSASTASGIKLTTFIVILTSVIAYLRGKKETVIFRRSIKYPIIIKALAVSVTSLFIVFLGIFALTITEQAPFLQIVFETFSAFGTVGLTMGLTPELTTAGKCIIIVIMFIGRIGPLTFVFSFAKTEQSNIRYPDGEVFTG
partner: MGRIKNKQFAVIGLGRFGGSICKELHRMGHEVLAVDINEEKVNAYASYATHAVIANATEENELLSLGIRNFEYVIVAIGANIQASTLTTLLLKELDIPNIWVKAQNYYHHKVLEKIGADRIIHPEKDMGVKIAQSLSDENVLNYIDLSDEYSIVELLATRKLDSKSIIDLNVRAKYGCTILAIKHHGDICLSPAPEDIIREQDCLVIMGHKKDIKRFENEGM

Variants of: B1
Conditions: with ktra_bacsu ktrA

| effect of a mutation on the interaction | Variant |
| --- | --- |
| decreasing interaction strength | L108A |
